Reference: paper PMC3069011 (Molecular Biology of the Cell, 2011)

Biological target: T1, GST-Nup88 (human, UniProt Q99567 1-741)
T1 sequence (looked up): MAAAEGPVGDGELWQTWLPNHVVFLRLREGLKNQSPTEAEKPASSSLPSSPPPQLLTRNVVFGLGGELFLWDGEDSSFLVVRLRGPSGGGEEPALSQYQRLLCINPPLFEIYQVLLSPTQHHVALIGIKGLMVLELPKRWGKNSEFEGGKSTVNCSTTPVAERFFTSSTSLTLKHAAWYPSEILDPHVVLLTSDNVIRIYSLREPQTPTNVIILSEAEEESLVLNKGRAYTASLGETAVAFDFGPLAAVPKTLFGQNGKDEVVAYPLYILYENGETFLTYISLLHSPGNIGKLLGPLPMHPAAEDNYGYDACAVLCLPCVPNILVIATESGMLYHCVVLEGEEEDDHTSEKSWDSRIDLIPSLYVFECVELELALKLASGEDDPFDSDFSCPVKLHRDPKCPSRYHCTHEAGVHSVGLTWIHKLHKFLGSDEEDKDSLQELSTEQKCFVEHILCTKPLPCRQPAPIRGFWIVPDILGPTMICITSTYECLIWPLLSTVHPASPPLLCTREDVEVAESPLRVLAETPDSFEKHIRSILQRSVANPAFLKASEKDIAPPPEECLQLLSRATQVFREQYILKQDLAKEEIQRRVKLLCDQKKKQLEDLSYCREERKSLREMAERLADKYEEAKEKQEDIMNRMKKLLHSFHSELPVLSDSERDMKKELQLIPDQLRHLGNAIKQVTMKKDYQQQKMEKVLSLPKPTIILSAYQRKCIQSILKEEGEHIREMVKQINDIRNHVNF
Experiment: far-Western, overlay or dot blot

B1: lamin A tail (residues 243-664), bacterially expressed and purified (domain or fragment, human, UniProt P02545 243-664, looked up)
chain: DALQELRAQHEDQVEQYKKELEKTYSAKLDNARQSAERNSNLVGAAHEELQQSRIRIDSLSAQLSQLQKQLAAKEAKLRDLEDSLARERDTSRRLLAEKEREMAEMRARMQQQLDEYQELLDIKLALDMEIHAYRKLLEGEEERLRLSPSPTSQRSRGRASSHSSQTQGGGSVTKKRKLESTESRSSFSQHARTSGRVAVEEVDEEGKFVRLRNKSNEDQSMGNWQIKRQNGDDPLLTYRFPPKFTLKAGQVVTIWAAGAGATHSPPTDLVWKAQNTWGCGNSLRTALINSTGEEVAMRKLVRSVTVVEDDEDEDGDDLLHHHHGSHCSSSGDPAEYNLRSRTVLCGTCGQPADKASASGSGAQVGGPISSGSSASSVTVTRSYRSVGGSGGGSFGDNLVTRSYLLGNSSPRTQSPQNCSIM
binding result: binds
